Results on one molecule are retold here after patent publication US20140255415A1 (Novartis, published 2014).

In test [1] the target is T1, cynomolgus monkey LINGO-1 expressed on CHO-K1 cells (CHO-K1-cmLINGO-1) (cynomolgus monkey, UniProt Q9N008 34-614).
T1 construct: range 34-614; also called Cynomolgus LINGO-1; not shown: 2 amino acid residue linker
T1 sequence (looked up): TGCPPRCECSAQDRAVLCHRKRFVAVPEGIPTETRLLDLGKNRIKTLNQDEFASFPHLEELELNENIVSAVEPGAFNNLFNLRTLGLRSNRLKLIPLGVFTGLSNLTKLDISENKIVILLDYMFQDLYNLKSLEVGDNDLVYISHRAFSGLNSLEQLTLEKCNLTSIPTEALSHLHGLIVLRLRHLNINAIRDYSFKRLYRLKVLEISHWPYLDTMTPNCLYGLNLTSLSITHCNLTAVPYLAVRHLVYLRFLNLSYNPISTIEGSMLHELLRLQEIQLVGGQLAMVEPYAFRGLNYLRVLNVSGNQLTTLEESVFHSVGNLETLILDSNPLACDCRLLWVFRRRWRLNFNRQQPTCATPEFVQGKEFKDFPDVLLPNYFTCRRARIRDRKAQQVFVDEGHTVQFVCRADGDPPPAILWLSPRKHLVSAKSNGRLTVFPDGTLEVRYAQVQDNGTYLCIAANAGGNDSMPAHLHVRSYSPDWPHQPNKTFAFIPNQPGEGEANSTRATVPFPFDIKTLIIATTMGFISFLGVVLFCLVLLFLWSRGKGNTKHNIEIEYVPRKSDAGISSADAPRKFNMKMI
Briefly: apparent KD, FACS saturation binding on CHO-K1-cmLINGO-1 cells, Fab format. As to the method: (§1) Cell based affinity of anti-LINGO-1 specific antibodies is determined by FACS saturation binding experiments. […] Otherwise the staining procedure is done identical to the FACS staining procedure described above.
(§2) In detail, CHO-K1-hLINGO-1, CHO-K1-cmLINGO-1 or CHO-K1-rLINGO-1 are detached from culture flasks by versene, washed with FACS buffer and resuspended in FACS buffer. Purified anti-LINGO-1 Fabs are serially diluted in FACS buffer and spread into round bottom 96-well microtiter plates (NUNC™, Wiesbaden, Germany). For each concentration, duplicate wells are incubated with 1.25×10⁴ cells for 30-60 min on ice in a total volume of 100 μl.

Test [2] addresses human LINGO-1 expressed on CHO-K1 cells (CHO-K1-hLINGO-1) (human) (UniProt Q96FE5). Briefly: apparent KD, FACS saturation binding on CHO-K1-hLINGO-1 cells, Fab format.
Test [3] deals with T2, rat LINGO-1 expressed on CHO-K1 cells (CHO-K1-rLINGO-1) (rat, UniProt A0A8I5ZPI2 34-614).
T2 construct: range 34-614; not shown: 2 amino acid residue linker
T2 sequence: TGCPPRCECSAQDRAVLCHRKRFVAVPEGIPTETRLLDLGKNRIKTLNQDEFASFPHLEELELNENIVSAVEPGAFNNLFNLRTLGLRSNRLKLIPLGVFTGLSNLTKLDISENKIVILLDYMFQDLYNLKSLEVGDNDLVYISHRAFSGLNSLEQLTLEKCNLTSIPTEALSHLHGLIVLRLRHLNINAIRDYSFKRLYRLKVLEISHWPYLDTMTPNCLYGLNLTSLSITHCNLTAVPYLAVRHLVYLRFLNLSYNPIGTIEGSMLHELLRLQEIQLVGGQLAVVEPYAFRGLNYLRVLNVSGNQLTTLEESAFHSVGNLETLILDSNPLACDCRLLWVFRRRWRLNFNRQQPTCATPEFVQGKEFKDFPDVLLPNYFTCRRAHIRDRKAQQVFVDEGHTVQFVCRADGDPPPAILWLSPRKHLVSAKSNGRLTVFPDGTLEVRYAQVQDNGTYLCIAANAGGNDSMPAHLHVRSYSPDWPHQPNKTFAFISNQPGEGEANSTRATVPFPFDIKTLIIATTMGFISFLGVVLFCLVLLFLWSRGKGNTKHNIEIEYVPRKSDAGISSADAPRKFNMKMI
Briefly: apparent KD, FACS saturation binding on CHO-K1-rLINGO-1 cells, Fab format. As to the method: as §1, §2

Test [4] has as its target Unrelated Fc. The test is described as follows: ELISA, Fc fusion captured via goat anti-human IgG Fc, Fab detected with AP-conjugated secondary and AttoPhos. On the technique in general: In an ELISA, binding on a coated surface is turned into a signal by an enzyme label.
For test [5], the target named is T3, human NgR-Fc fusion protein (R&D Systems) (human, UniProt Q9BZR6 27-447, limits assumed).
T3 construct: Commercial protein; also called captured human NgR-Fc; not shown: Fc part of the commercial fusion protein; not described
T3 sequence (looked up): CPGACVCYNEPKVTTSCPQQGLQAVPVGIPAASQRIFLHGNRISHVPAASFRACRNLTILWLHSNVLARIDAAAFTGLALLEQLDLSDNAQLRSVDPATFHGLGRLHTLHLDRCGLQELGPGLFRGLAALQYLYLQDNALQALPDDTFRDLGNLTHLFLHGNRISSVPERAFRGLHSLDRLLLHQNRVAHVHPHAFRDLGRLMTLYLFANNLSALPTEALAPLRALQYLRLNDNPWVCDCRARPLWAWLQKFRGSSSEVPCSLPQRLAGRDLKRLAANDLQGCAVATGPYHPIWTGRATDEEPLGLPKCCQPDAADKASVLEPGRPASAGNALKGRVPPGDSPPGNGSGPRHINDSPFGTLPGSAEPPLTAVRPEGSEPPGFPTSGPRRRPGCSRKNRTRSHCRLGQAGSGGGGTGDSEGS
The test is described as follows: ELISA, captured Fc fusion protein.

Test [6] concerns the target T4, human LINGO-1-ΔLRR-Fc (Igleader-hsLINGO-1-ΔLRR-Fc) (human, UniProt Q96FE5 40-556).
T4 construct: Heterologous secretion signal left out; also called human LINGO-1 lacking the LRR domain
T4 sequence: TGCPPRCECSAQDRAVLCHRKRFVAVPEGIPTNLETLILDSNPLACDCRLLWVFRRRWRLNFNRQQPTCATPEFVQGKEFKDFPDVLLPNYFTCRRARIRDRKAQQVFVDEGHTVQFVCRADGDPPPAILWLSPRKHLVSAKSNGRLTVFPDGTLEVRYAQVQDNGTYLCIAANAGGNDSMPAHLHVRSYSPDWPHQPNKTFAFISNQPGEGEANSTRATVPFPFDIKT
The test is described as follows: ELISA, captured Fc fusion protein.

Test [7] has as its target T5, human LINGO-1-Fc fusion protein (natleader-hsLINGO-1-Fc) (human, UniProt Q96FE5 42-556).
T5 construct: also called human recombinant LINGO-1-Fc; captured human LINGO-1-Fc; not shown: protein lette
T5 sequence: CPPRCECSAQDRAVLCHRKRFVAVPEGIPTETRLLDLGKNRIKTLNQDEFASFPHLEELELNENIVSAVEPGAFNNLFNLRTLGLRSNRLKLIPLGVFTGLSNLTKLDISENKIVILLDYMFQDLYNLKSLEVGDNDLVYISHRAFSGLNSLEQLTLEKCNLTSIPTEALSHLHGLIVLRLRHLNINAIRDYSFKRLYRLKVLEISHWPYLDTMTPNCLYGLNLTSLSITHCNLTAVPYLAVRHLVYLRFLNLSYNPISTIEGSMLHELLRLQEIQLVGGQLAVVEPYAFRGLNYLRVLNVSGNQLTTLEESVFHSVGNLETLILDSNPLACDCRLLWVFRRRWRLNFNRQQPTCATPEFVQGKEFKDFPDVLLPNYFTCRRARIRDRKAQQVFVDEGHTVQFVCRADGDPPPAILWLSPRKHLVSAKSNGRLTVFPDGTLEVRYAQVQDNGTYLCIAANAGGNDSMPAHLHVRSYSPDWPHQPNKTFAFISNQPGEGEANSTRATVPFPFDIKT
The test is described as follows: ELISA, Fc fusion captured via goat anti-human IgG Fc, Fab detected with AP-conjugated secondary and AttoPhos.

Test [8] has as its target T3, human NgR-Fc fusion protein (R&D …). The description is as above.
In test [9] the target is T4, human LINGO-1-ΔLRR-Fc …. Described as above.

B1: anti-LINGO-1 Fab 4784 (Fab, V domains shown)
VH: QVQLKESGPALVKPTQTLTLTCTFSGFSLSSSGVGVGWIRQPPGKALEWLAHIGSDDDKYYSTSLKTRLTISKDTSKNQVVLTMTNMDPVDTATYYCARNQQYGDGYPGYFDYWGQGTLVTVSS
VL: DIELTQPPSVSVAPGQTARISCSGDNIGNYYVYWYQQKPGQAPVLVIYEDTNRPSGIPERFSGSNSGNTATLTISGTQAEDEADYYCQSYDNLHEQVFGGGTKLTVLG
Regarding B1, the Kd in [1] worked out at 27.1 nM; in test [2], 14.1 nM; in test [3], 24 nM. The relative fluorescence units (RFU) was 52 RFU in [4], 98 RFU in test [7], 68 RFU in test [8] and 49 RFU in test [9]. Moreover, the binding result in test [5] and in test [6] was “no binding” throughout.
